Test results reported in the nanobody polyreactivity screen of Harvey et al. (2022).

Experiment: yeast display, Sf9 membrane polyspecificity reagent, FACS + sequencing; frameworks hold sequencing errors
Summary of the method: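 Using colony PCR, genes from sorted yeast display clones were amplified, then sequenced on MiSeq at 2 × 250 and filtered by CDR length. The clones had been stained with 10% biotinylated, detergent-solubilized Sf9 membrane reagent for 1 hour at 4 °C and sorted by FACS into low and high (top ~1%) gates on anti-HA and streptavidin fluorescence. Polyreactivity labels come from the gate of origin.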

| Sequence | polyreactivity (PSR sort gate) |
| --- | --- |
| QVHLVESGGGLVQAGGSLRLTCAASGRIFAHYAMGWYRQAPGKERELVAAISSGGSTYYADSVKGRFTISRDNAKNTVYLQMNSVKPEDTAVYYCNKRPVRRKYDYWGQGTQVTVSS | low polyreactivity |
| KVQLVESGAGLVQAGGSLRLTCAASGFTFAYYAMGWYRPAPGKERELVAAISWSGGITYYADSVKGRFTISRDNAKNTVYLQMNSLKPEDTAVDYCAAETFRGSYYDEDYDYWGQGTQVTVSS | low polyreactivity |
| QVQLVESGGGLVQAGGSLRLSCAASGFIFYRYTMGWYRQAPGKERELVASISSGGSTNYADSVKGRFTISRDNAKNTVYLQMNSLKPEDTAVYYCAASRFRWVQRYDYWGQGTQVTVSS | high polyreactivity |
| HVQLVESGGGLVQAGGSLRLSFAASGFTFRSYAMGWYRKAPGQERELVAAINWRGDSTYYADSVKGRFTISRDNAKNTVYLQMNSLNPEDTAVYYCNAYSGYIRRTASDYWGQGTQVTVSS | high polyreactivity |
| QVQLVESGGGLVQAGGSLRLSCAASGSIFQGNAMGWYRQAPGKERELVAAISWSGDSTYYADSVKGRFTISRDNAKNTVYLQMNSLKPEDTAVYYCNAEWTRDFYEYDYWGQGTQVTVSS | low polyreactivity |
| QVQLVESGGGLVQAGGSLRLSCAASGSTFDYNDMGWYRQAPGKERELVASITFSGGTYDADSVKGRFTISRDNAKTTVYLQMNSLTPEDTAVYYCNAVYFFYIDPWNSYPTYDYWGQGTQVTVSS | high polyreactivity |
| QVQLVESGGGLVQAGGSLRLSCAASGNTLDAYTLGWDRQAPGKERELVAAISRGGTRTYYADSLKGRFTISRDNAKNTVYLQMKSLKPEDTAVYSCAAKVGYTHEYGRYDYWGQGTQVTVSS | high polyreactivity |
| QVQLVESGGGLVQAGGSLRLSCAASGRTFQFYVMGWYRQAPGKERELVASIRSGGSTNYADSVKGRFTISRDNAKNTVYLQMNSLKPEDTAVYYFAARVASPYYRYDFWGQGTQVTVSS | low polyreactivity |
| QVQLVESGGGLVQAGGSLRLSCAASGRNFPTKAMGWYREAPGTERELVAAITRSGSTYYADSVKGRFTISRDNAKNTVYLQMNSLKPEDTAVYYCAAYAYIFLDWGGYPYYLYEYDDWGQGTQVTVSS | low polyreactivity |
| QVQLVESGGGLVQAGGSLRLSCAASGSTFRYYVMGWYRQAPWKERELVAGITKSGGNTYYADSVKGRFTISRDNAKNTVYLQMNSLKPEDTAVYYCAARGLWTRGYYYWGQGTQVTVSS | high polyreactivity |
| HLQLVESGGGLVQAGGSLRLSCAASGRIFPGYAMGWYRQAPGKERELVAAIDGTGTSTYYADSVKGRFTISRDNAKNTVDLQMNSLNPEDTAVYYCAADGRPRGTFGYWGQGTQVTVSS | low polyreactivity |
| QVQLVESGGGLVQAGGSLRLSCAASGLIFLRNSMGLDRTAPGKERELVAAISRSGGSTYYADSVKGRFTISRDSAKYSGYLQMNSLKPVDTAVYYCAKYGYGGVIPGPDHFDYWVQGTQVTVSS | high polyreactivity |
| QVQLVESVGGLVQAGGSLRLSCAASGSIFQPYAMGWYRQAPGKERELVAAISIGDSTNYADSLKGRFTISRDNAKNTFYLQMNSLIPEDTAVYYCNTTGEYYDYWGQGTQVTVSS | low polyreactivity |
| QVQLVESGGGLVQAGGSLRLSCAASGSIFPPNAMGWYRQAPGKERELVAAITWSGGSTYYADSVKGRFTISRDNAKNTVYLQRNSLKPEDTAVYYCAKEGARSYNVRAYYYRNYYYWGQGTQVTVSS | high polyreactivity |
| QVQLVESGGGLVQAGGSLRLSCAASGSIFYYYTRGWSRQAPGKEMELVAAITSGGSTYYADSVKGRFTISRDNAKNTVYLQMNSLKPEDTAVYYCAAPIYYRLWKPGYEYWGQGTQVTVSS | high polyreactivity |
| QVQLVESGGGLVQAGGSLRLSCAASGRIFRDYVMGWYRQAPGKERELVAAISRGGSTYYADSVKGRFTISRDNAKNTVYLQMNSLKPEDTAVYYCAASWRSYSQLDYYWGQGTQVTVSS | high polyreactivity |
| QVQLVESGGGLVQAGGSLRLSCAASGRTFAIYVMGWYRQAPGKERELVAAISRGGSTYYADSVKGRFTISRDNAKNTVYLQMNSLKPEDTAVYYFAAGTGTTSRYYYWGQGTQVTVSS | high polyreactivity |
| QVQLVESGGGLVQAGGSLRLSCAASGSTFNGYAMGWYRQAPGKERELVAAISKRGGGTYYADSVKGRFTISRDNAKNTVYLQMNSLKPEDTAVYYCAAVSGPFVQTSGNGEYDYWGQGTQVTVSS | low polyreactivity |
| QVQLVESGGGLVQAGGSLRLSCAASGRTFSYYGMGWYRKAPGKERELVAGISIRGSHTYYADSVKGRFTISRDNAKNTVFLQMNSLKPEDTGVYYCAARWIGLYSYEYWGQGSQVTVSS | high polyreactivity |
| QVQLVESGGGLVQAGGSLRLSCAASGRTFYKYAMGWYRQAPWKERELVAAISSDGTTYYADSVKGRFTISRDNAKNTVYLQMNSLKPEDTAVYYCAKDRKYADNDYWGQGTQVTVSS | low polyreactivity |
| QVQLVESGGGLVQAGGSLRLSCAASGRIFSGYAMGWYRQAPGKEMELVAAISNSGASTYYADSVKGRFTISRDNAKNTVYLQMNSLKPEDTAVYYCAASGRVYSSGYDYWGQGTQVTVSS | high polyreactivity |
| QVQLVESGGGLVQAGGSLRLSCAASGSIFDLYAMGWYRQAPGKERELVAAITSTGSTYYADSVKGRFTISRDNAKNTVYLQMNSLKPEDTAVYYCAATRGSSEYYYWGQGTQVTVSS | low polyreactivity |

| Sequence | polyreactivity (PSR sort gate) |
| --- | --- |
| QVQLVESGGGLVQAGGSLRLSCAASGSTFARYAMGWYRQAHGKERELVAAISRRGGSTYYADSVKGRFTISRDNAKNTVYVQMNSLKPEDTAVHYCAARYGIISSFEYDYWGQGTQVTVSS | high polyreactivity |
| QVQLVDSGGGLVQAGGSLRLSCAASGNILRKYAMGWYRQAPGKERELVAAISSSGGRTYYADSVKGRFTISRDNAKNTVYLQMYSLKPEDTAVYYCAKDPYGRLQPRPRFGYWGQGTQVTVTS | high polyreactivity |
| QVQLVESGGGLVQAGGSLRLSCAASGRIFRDYAMGWYRQAPGKERELVAAIRSVGNTNYADSVKGRFTISRDNAKNTVYLQMNSLKPEDTAVYYCNRQGSDFSRQAIGDFRFDYWGQGTQVTVSS | low polyreactivity |
| QVQLVESGGGLVQAGGSLRLSCAASGRTFPGYAMGWYRQAPGKERELVAGISYRGGSTYYADSVKGRFTISRDNAKNTVYLQMNSLKPEDTAVYYCARDYSRHKGDYWGQGTQVTVSS | low polyreactivity |
| QVQLVESGGGLVQAGGSLRLSCAASGGTFPLYAMGWYRQAPGKERELVAAIRWSGGRTYYADSVKGRFTISRDNAKNTVYLQMNSLKPEDTAVYYCAADYDDGWGYDYWGQGTQVTVSS | high polyreactivity |
| QVQLVESGGGLVQAGGSLRLSCAASGSTFLYYAMGWYRQATGKERELVAAIDSGGSTYYADSVKGRFTISRDNAKNTVYLQMNSLKPEDTAVYYCNADFADHWPPNGPGAHDYWGQGTQVTVSS | low polyreactivity |
| QVQLVESGGGLVQAGGSLRLSCAASGSIFRWYAMGWYRQAPGKERDLVAAITWSGGRTYYADSVKGRFTISRDNAKNTVYLQMNSLKPEDTAVYDCAKPALVTSYRVGYNYWGQGTQVTVSS | high polyreactivity |
| QVQLVESGGGLVQAGGSLRLSCAASGFIFSRNTMGWYRQAPGKERELVAAISRGGGSTYYADSVKGRFTISRDNAKNTVYLQMNSLKPEDTAVYYCNTRIVAAGRYDYWGQGTQVTVSS | high polyreactivity |
| QVQLVESGGGLVQAGGSLRLSCAASGSIFLGNAMGWSRQAPGKERELVAAISSITGRTYYADSVKGRFTISRDNAKNTVYLQMNSLKPEDTAVYYCNKVKRSFIVNTDDYWGQGTQVTVSS | high polyreactivity |
| QVQLVESGGGLVQAGGSLRLSCAASGRTFGRNDMAWYRQAQGKERELVAGISIGGGTTYYADSVKGRFTISRDNAKNTVYLQMNSLKPEDTAVYYCAARSWSYLHRYGYWGQGTQVTVSS | high polyreactivity |
| QVQLVESGGGLVQAGGSLRLSCAASGFTFYTYTMGWYRQAPGKERELVAVISRSGGSTYYADSVKGRFTISRDNAKNTVYLQMNSLKPEDTAVYYCNAGYWRFIDSYDYWGQGTQVTVSS | high polyreactivity |
| QVQLVESGGGLVQGGGSLRIICAASGFTFTDYAMGWYRQAPGKERELVAAIDGSGGRTYYAYSVKGRFTISRDNAKNTFYLQMNSLKPEHTAVYYCAAGLYSRLYWYRLDYWGQGTQVTVSS | low polyreactivity |
| QVQLVESGGGLVQAGGSLRLSCAASGRISPSYAMGWYRHATGKERELVAAISRGGSTSYADSVKGLFTISRDNAKNTVYLQMNSLKPEDTAVYYCSTRGPRYRNYYWGQGTQVTVSS | high polyreactivity |
| QVQLVESGGGLVQAGGSLRLSCAASGLTFLKNAMGWYRQAPGKERELVAAISDGGSTNYADSVKGRFTISRDNAKNTVYLQMNSLKPEDTAVYYCAAVYTSASYGSWGQGTQVTVSS | low polyreactivity |
| QVQLVESGGGLVQAGGSLRLSCAASGSTFKYNTMGWYRQAPGKERELVARISWSGTRTYYADSVKGRFTISRDNAKNTVYLQMNSLKPEDTAVYYCAKVSYFWSPYGYDSWGQGTQVTVSS | high polyreactivity |
| QVQLVESGGGLVQAGGSLRLSCAASGRTFTGNAMGWYRPAPGKERELVADNNLSGGDTYYADSVKGRFTISRDNAKNTVYLQMNSLKPEDTAVYYCNARVRDKRTGRYGYWGQGTQVTVSS | high polyreactivity |
| QVQLVESGGGLVQAGGSLRLSCAASGFIFGVYAKGWYRQAPGKERELVAAISGSGVRTYYADSVKGRFTISRDNAKNTLYLQMNSLKPEDTAVYYCAARRGFVRPYNYWGQGTQVTVSS | high polyreactivity |
| QVQLVESGGGLVQAGGSLRISCAASGSTFTTYSMGWYRQAPGKEREKVAAIRFSGGTTYYADSVKGRFTISRDNAKNTVYLQMNSLKPEDTAVYYCAAVYISRIFFGRARGDYWGQGTQVTVSS | low polyreactivity |
| QVQLVESGAGLVKAGGILRLSCAASGFTFYGYAMGWYRQAPGKERELVAAITFRGDRTYYADSVKGRFTISRDNAKNTVYLQMNSLIPEDTAVYYCAAERPSGWYSYLSLYIVRRGYWGQGTQVSVSS | low polyreactivity |
| QVQLVESGGGLVQAGGSLRLSCAASGRIFGGYVMGWYRQAPGKEREFVAAISGRGTSTSYADSVKGRFTISRDNAKNTVYLQMNSLKPEDTAVYYCAARRDGWTFWKYDYWGQGTQVTVSS | high polyreactivity |
| QVQLVESGGGLVQAGGRLRLSCAASGRTIVRYVIGWYRQAPGKERELVARISFSSGSTYYADSVKGRFTISRDNAKNTVYVQMNSLIPEDTAVYYCAASPDVSFRRFSRVVSGDYWGQGTKVTVSS | high polyreactivity |
